1 molecule from patent US20100003195A1 can be followed below.

Bridge positions count the residues as written; N and C are the ends.

Test [1] deals with KDR on KDR-transfected 293H cells (human), P35968. Nature of the test: competitor 125I-VEGF (300 pM), KDR-transfected 293H cells, peptide 0.3 µM. As to conditions: remark: other sources report otherwise.
Test [2] shares this target. Kind of test: competitor 125I-VEGF (300 pM), KDR-transfected 293H cells, peptide 30 µM. As to conditions: remark: other sources report otherwise.

B1: SEQ ID NO:264 (peptide)
peptide: Ac-AGPKWCEEDWYYCMITGTGGGK-NH2
modifications: disulfide 6-13 (inferred); also: fluorescein on C-terminal Lys in FP only
As to B1, the % inhibition of 125I-labeled VEGF binding was found to be 24.4% in test [1] and 48% in test [2].
